Measured values from article PMC9956592 (2023).

B1: scTGP USP11-C3, purified protein (scFv, V domains shown)
VH: QVQLVQSGAEVKKPGSSVKVSCKASGGTFSSYAISWVRQAPGQGLEWMGGIIPIFGTANYAQKFQGRVTITADESTSTAYMELSSLRSEDTAVYYCAREGGIGLSGWLDPWGQGTLVTVSS
VL: EIVLTQSPGTLSLSPGERATLFCRASQSVSSNLAWYQQKPGQAPRLLIYGASTRATGIPARFSGSGSGTEFTLTISSLQSEDFAVYYCQQYDDWPLTFGGGTKVDIK
B2: scTGP USP11-B6, purified protein (scFv, V domains shown)
VH: QVQLVQSGAEVKKPGSSVKVSCKASGGTFSSYAISWVRQAPGQGLEWMGGIIPIFGTANYAQKFLGRVTITADESTSTAYMELSSLRSEDTAVYYCAREGGIGLSGWLDPWGQGTLVTVSS
VL: EIVMTQTPGTLCLSPGERATLSCRASQSVSNNNLAWYQQKPGQAPRLLIFGASNRATGIPDRFSGSGSGTDFTLTISSLQSEDFAVYYCQQYDSWPLTFGGGTKLEIK

Tests used:
[1] = molecular target: T1, Ubiquitin Specific Peptidase 11 (USP11) (human, UniProt P51784 1-963, biotin (biotinylated USP11 in the yeast display assays)); assay: SPR
[2] = molecular target: T1, Ubiquitin Specific Peptidase 11 (USP11); assay: SPR; remark: listed apart in the source

T1 sequence (P51784 whole entry): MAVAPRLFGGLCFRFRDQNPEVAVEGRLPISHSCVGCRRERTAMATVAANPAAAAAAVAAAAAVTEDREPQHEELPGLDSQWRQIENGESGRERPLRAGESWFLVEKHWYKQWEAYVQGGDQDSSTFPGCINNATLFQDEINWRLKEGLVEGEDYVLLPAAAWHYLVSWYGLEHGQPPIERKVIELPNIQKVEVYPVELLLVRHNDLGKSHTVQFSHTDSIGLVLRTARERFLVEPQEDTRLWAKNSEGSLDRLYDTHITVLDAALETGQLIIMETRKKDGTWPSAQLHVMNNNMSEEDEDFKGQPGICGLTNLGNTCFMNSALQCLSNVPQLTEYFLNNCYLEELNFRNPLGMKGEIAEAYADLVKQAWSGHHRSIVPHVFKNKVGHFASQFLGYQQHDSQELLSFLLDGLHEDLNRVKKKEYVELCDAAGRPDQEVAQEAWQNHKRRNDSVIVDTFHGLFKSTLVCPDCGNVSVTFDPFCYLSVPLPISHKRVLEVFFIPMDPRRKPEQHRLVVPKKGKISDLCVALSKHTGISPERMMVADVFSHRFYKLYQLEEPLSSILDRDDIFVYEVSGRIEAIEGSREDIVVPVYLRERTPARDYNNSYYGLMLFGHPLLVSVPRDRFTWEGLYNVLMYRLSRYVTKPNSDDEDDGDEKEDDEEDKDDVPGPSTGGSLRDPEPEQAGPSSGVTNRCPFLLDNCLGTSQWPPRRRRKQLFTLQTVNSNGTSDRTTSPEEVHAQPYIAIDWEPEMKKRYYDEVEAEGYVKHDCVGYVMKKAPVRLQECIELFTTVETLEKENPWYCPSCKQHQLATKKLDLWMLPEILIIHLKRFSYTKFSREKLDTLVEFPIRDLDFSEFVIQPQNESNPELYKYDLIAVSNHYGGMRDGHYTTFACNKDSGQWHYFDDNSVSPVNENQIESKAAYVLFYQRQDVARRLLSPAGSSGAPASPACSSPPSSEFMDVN

| Binder | Kd [1] [nM] | koff [2] [s⁻¹] |
| --- | --- | --- |
| B1 | 160 | 0.0038 |
| B2 | 48 | 0.00089 |
